Patent US20190284280A1 (ANAPTYSBIO, published 2019)

Assays:
[1] = molecular target: T1, soluble cynomolgus monkey TIM-3 fusion (cynomolgus monkey, UniProt A0A2K5U3G7 22-195); assay: SPR Biacore T200; captured TIM-3 fusion, antibody flowed over; 1:1 model
T1 construct: The SPR method describes only the human mIgG2a Fc fusion; not shown: mIgG2a Fc i
T1 sequence: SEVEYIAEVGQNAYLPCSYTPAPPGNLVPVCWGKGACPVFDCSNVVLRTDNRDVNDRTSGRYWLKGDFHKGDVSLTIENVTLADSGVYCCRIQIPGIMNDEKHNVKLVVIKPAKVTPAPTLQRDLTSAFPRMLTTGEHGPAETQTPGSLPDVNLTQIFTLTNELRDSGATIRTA

[2] = molecular target: T2, native human TIM-3 stably transfected in CHO-K1 cells (human, UniProt Q8TDQ0 22-301); assay: flow cytometry on human TIM-3 expressing CHO-K1 cells, PE anti-human IgG4 detection
T2 construct: whole, on cells; also called cell-surface human TIM-3; human TIM-3 expressing CHO-K1 cells
T2 sequence (looked up): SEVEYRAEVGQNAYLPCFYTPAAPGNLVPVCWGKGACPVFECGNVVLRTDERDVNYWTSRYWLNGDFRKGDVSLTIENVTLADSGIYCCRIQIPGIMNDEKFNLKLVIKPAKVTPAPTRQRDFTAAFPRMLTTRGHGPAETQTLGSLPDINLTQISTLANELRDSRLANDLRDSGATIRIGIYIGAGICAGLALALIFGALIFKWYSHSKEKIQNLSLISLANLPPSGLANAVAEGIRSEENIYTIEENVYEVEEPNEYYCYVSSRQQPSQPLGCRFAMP
Protocol: (§1) Flow cytometry studies were performed with CHO-K1 cell line clones in which native human or cynomolgus monkey TIM-3 was stably transfected. An exemplary anti-TIM-3 antibody (having heavy and light chains as set forth in SEQ ID NOs: 1 & 2, respectively) was diluted in 3-fold dilutions. Dilutions of exemplary antibody were added to human or cynomolgus monkey TIM-3 expressing CHO-K1 cells (1E5 cells) and incubated on ice. Cells were washed twice and incubated on ice with PE-conjugated goat anti-human IgG4 to detect antibody binding. Cells were washed and resuspended in the presence of propidium iodide to exclude dead cells and fixed before fluorescence was analyzed on a BD FACSArray (BD Biosciences). Data were analyzed for median fluorescence intensity, graphed, and curves fitted for EC₅₀ value calculation in GraphPad Prism (GraphPad Software, Inc.) using a non-linear (sigmoidal) regression analysis.

[3] = molecular target: T3, Dimeric soluble human TIM-3 mIgG2a Fc (human; mouse, UniProt Q8TDQ0 22-200); assay: SPR Biacore T200; TIM-3 fusion captured on anti-mouse IgG Fc, antibody flowed over; 1:1 model
T3 construct: Captured on an anti-mouse IgG (Fc-specific) Biacore CM5 surface; also called soluble TIM-3 fusion; not shown: mouse IgG2a Fc
T3 sequence (looked up): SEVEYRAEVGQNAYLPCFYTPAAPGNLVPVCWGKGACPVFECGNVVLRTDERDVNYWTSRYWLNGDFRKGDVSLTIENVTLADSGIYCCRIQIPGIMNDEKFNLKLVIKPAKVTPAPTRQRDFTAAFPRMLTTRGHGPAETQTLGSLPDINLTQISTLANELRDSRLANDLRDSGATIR
Protocol: SPR analyses were carried out using a Biacore T200, and kinetic constants were determined using Biacore T200 Evaluation software. […] GE anti-mouse IgG (Fc-specific) was immobilized on a Biacore CM5 chip using EDC-activated amine coupling chemistry. Dimeric soluble human TIM-3 mIgG2a Fc was then captured onto this surface to a target capture level of ˜70 RU or less. Next an exemplary anti-TIM-3 antibody (having heavy and light chains as set forth in SEQ ID NOs: 1 & 2, respectively) was flowed over the surface with captured antigen (TIM-3 fusion). Capture and analyte binding were performed in HBS-EP+ buffer. The captured antigen and antibodies were removed between each cycle to ensure a fresh binding surface for each concentration of […]. The resulting sensorgrams were fitted globally using a 1:1 binding model to calculate on- and off-rates (kassoc and kdissoc, respectively), and dissociation constants as a measure of overall affinity (KD).

[4] = molecular target: T4, native cynomolgus monkey TIM-3 stably transfected in CHO-K1 cells (cynomolgus monkey, UniProt A0A2K5U3G7 22-294); assay: flow cytometry on cynomolgus monkey TIM-3 expressing CHO-K1 cells, PE anti-human IgG4 detection
T4 construct: whole, on cells; also called cell-surface cynomolgus monkey TIM-3; cynomolgus monkey TIM-3 expressing CHO-K1 cells
T4 sequence: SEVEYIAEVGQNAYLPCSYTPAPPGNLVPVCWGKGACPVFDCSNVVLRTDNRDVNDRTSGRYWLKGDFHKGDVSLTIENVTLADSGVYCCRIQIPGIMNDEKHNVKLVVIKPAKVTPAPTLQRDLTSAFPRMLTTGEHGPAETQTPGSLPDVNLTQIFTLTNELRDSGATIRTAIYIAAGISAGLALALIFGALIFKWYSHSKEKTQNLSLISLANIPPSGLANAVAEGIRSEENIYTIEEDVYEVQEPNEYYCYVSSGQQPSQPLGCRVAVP
Protocol: as §1

B1: exemplary anti-TIM-3 antibody (having heavy and light chains as set forth in SEQ ID NOs: 1 & 2, respectively) (antibody, human IgG4 S228P, kappa, V domains shown)
VH: EVQLLESGGGLVQPGGSLRLSCAAASGFTFSSYDMSWVRQAPGKGLDWVSTISGGGTYTYYQDSVKGRFTISRDNSKNTLYLQMNSLRAEDTAVYYCASMDYWGQGTTVTVSS
VL: DIQMTQSPSSLSASVGDRVTITCRASQSIRRYLNWYHQKPGKAPKLLIYGASTLQSGVPSRFSGSGSGTDFTLTISSLQPEDFAVYYCQQSHSAPLTFGGGTKVEIKR
modifications: N-glycosylation at asparagine residue 290 of SEQ ID NO:1
notes: Humanized IgG4 (human IGHG4*01) / kappa (IGKC*01); also called exemplary humanized monoclonal anti-TIM-3 antibody; anti-TIM-3 mAb
Binder B1 has a Kd [1] of 0.017 nM, a koff [1] of 0.00019 s⁻¹ and a kon [1] of 1.1e+07 M⁻¹ s⁻¹. The EC50 [2] was 0.17 nM, the Kd [3] was 0.007 nM and the koff [3] was 0.00011 s⁻¹. For the same binder, the kon [3] was 1.5e+07 M⁻¹ s⁻¹ and the EC50 [4] was 0.27 nM.
